# Results as given in US8796201B2 (The Board of Trustees of the Leland Stanford Junior …, priority 2002, dated 2014).
# Assay: Double-blind crossover gluten challenge: 72-hour quantitative fecal fat test
# Format: in vivo, human (Celiac Sprue patients)
# Source text: It was first established that a low-dose, short-term (5-10 g/day for 14 days) gluten oral supplement induces fat and carbohydrate malabsorption when given to asymptomatic Celiac Sprue patients on an otherwise gluten free diet. This protocol was modified to examine the effect of gluten pre-treated with pepsin, trypsin and chymotrypsin (PTC-Gluten) as compared to PTC-Gluten additionally treated with PEP (PTC-Gluten+PEP). In this study, Celiac patients maintaining a gluten-free diet ingested a supplement of 5 g/day gluten as PTC-Gluten or PTC-Gluten+PEP in an orange-lemon juice vehicle for 14 days in a double-blind crossover manner. A 6-week washout interval between individual arms of the crossover trial allowed patients to recover completely from the effects, if any, of the test material in the first arm.
# Subjects and protocols: This study was approved by the Institutional Review Board of the Palo Alto Medical Foundation in Palo Alto, Calif., and all participants in the study were counseled regarding risks and signed an informed consent document. 22 patients were recruited who were in symptomatic remission on a gluten-free diet. Two patients dropped out of the study, one near the end of the first stage and the other prior to the second stage. The 20 patients who completed the study included 7 men and […] aged 21 to 78 (mean age 49). The time since diagnosis for the 20 patients ranged from 3 months to 18 years (mean 6 years). Patients provided copies of their initial small-intestinal biopsy pathology report and laboratory reports documenting a history of at least one positive celiac antibody (gliadin, endomysial or transglutaminase) to verify a diagnosis of Celiac Sprue. They also completed an entry questionnaire inquiring about their medical history, adherence to the gluten-free diet, and current symptoms. The format of the study was a double-blinded crossover in which each patient consumed either a low daily dose of a gluten supplement (5 g; equivalent of one-half slice of bread) that was predigested with pepsin, trypsin and chymotrypsin alone (PTC-Gluten) or PTC-Gluten treated with prolyl endopeptidase (PTC-Gluten+PEP). The PEP in the latter orange juice mixture was completely inactivated through a heating process following proteolysis of the gliadin peptides. […]
# Studied variables: During each stage of the study, patients completed a daily questionnaire inquiring about symptoms and their adherence to the gluten-free diet. […] The serum anti-gliadin IgA antibodies and anti-tissue transglutaminase IgA and IgG antibodies were measured by an enzyme linked immunosorbent assay (ELISA) kit (INOVA Diagnostics, Inc., San Diego, Calif.). […] Total serum IgA levels were determined by an Integra instrument (Roche) (normal <81 mg/dl). […]
# [1] = All patients with full Fecal Fat data (N = 17)
# [2] = Subgroup with normal to Mild Steatorrhea (N = 8)
molecule,measurement,setting,value
"PEP: prolyl endopeptidase; Examples 1-2: from Flavobacterium meningosepticum (US Biological); Example 11: source not stated (protein, UniProt P27028 21-705, looked up) Prolyl endopeptidase: QNSNVLKYPETKKVSHTDTYFGTQVSDPYRWLEDDRAEDTKAWVQQEVKFTQDYLAQIPFRDQLKKQLMDIWNYEKISAPFKKGKYTYFSKNDGLQAQSVLYRKDAAGKTEVFLDPNKFSEKGTTSLASVSFNKKGTLVAYSISEGGSDWNKIIILDAETKKQLDETLLDVKFSGISWLGDEGFFYSSYDKPKEGSVLSGMTDKHKVYFHKLGTKQSQDELIIGGDKFPRRYIGAYVTDDQRYLVVSAANATNGNELYIKDLKNKTDFIPIITGFDSNVNVADTDGDTLYLFTDKDAPNKRLVKTTIQNPKAETWKDVIAETSEPLEINTGGGYFFATYMKDAIDQVKQYDKNGKLVRAIKLPGSGNASGFGGEKTEKDLYYSFTNYITPPTIFKYNVTTGNSEVYQKPKVKFNPENYVSEQVFYTSSDGTKIPMMISYKKGLKKDGKNPTILYSYGGFNISLQPAFSVVNAIWMENGGIYAVPNIRGGGEYGKKWHDAGTKMQKKNVFNDFIAAGEYLQKNGYTSKEYMALSGRSNGGLLVGATMTMRPDLAKVAFPGVGVLDMLRYNKFTAGAGWAYDYGTAEDSKEMFEYLKSYSPVHNVKAGTCYPSTMVITSDHDDRVVPAHSFKFGSELQAKQSCKNPILIRIETNAGHGAGRSTEQVVAENADLLSFALYEMGIKSLK","PEP Effective (patients / patients with positive gluten challenge), fecal fat",[1],5/7
same,"PEP Effective, fecal fat",[1],71%
same,"PEP Effective (patients / patients with positive gluten challenge), fecal fat",[2],4/4
same,"PEP Effective, fecal fat",[2],100%
